Experimental data taken from patent US20220160842A1, “METHOD OF TREATING INFECTIVE ENDOCARDITIS” (priority 2019, published 2022).

What was measured:
S. aureus (MRSA) = experiment: MIC by broth microdilution; assay type: cell-based, Staphylococcus aureus; details: S. aureus (MRSA), N=74
Method: (§1) Minimal inhibitory concentrations (MICs) of exebacase against staphylococci were determined by broth microdilution (BMD) using a nonstandard antimicrobial susceptibility testing (AST) medium comprised of cation-adjusted Mueller Hinton broth (caMHB) supplemented with horse serum (Sigma Aldrich) and dithiothreitol (DTT; Sigma Aldrich) to final concentrations of 25% and 0.5 mM, respectively. This medium, referred to as caMHB-HSD, is approved for use in exebacase AST by the Clinical and Laboratory Standards Institute (CLSI) (CLSI. 2017, Jan. 16-17. AST Subcommittee Working Group Meetings and Plenary. AST Meeting Files & Resources, clsi.org/education/microbiology/ast/ast-meeting-files-resources/. Additional supplementation with 2.5% lysed red blood cells (Remel™, ThermoFisher) was included for analyses of streptococcal isolates, as recommended by CLSI. See CLSI, 2015. Methods for Dilution Antimicrobial Susceptibility Tests for Bacteria That Grow Aerobically, 10th Edition. Clinical and Laboratory Standards Institute, Wayne, Pa.
(§2) Daptomycin (Sigma Aldrich) and vancomycin hydrochloride (Sigma Aldrich) were tested following the reference BMD method for each. See CLSI. 2015. Methods for Dilution Antimicrobial Susceptibility Tests for Bacteria That Grow Aerobically, 10th Edition. Clinical and Laboratory Standards Institute, Wayne, Pa.

S. aureus (MSSA) = experiment: MIC by broth microdilution; assay type: cell-based, Staphylococcus aureus; details: S. aureus (MSSA), N=73
Method: as §1, §2

S. lugdunensis = experiment: MIC by broth microdilution; assay type: cell-based, Staphylococcus lugdunensis; details: S. lugdunensis, N=49
Method: as §1, §2

S. capitis = experiment: MIC by broth microdilution; assay type: cell-based, Staphylococcus capitis; details: S. capitis, N=13
Method: as §1, §2

S. warneri = experiment: MIC by broth microdilution; assay type: cell-based, Staphylococcus warneri; details: S. warneri, N=23
Method: as §1, §2

S. gordonii = experiment: MIC by broth microdilution; assay type: cell-based, Streptococcus gordonii; details: S. gordonii (viridans), N=11
Method: as §1, §2

S. mitis = experiment: MIC by broth microdilution; assay type: cell-based, Streptococcus mitis; details: S. mitis (viridans), N=18
Method: as §1, §2

S. mutans = experiment: MIC by broth microdilution; assay type: cell-based, Streptococcus mutans; details: S. mutans (viridans), N=22
Method: as §1, §2

S. oralis = experiment: MIC by broth microdilution; assay type: cell-based, Streptococcus oralis; details: S. oralis (viridans), N=15
Method: as §1, §2

S. salivarius = experiment: MIC by broth microdilution; assay type: cell-based, Streptococcus salivarius; details: S. salivarius (viridans), N=12
Method: as §1, §2

S. sanguinis = experiment: MIC by broth microdilution; assay type: cell-based, Streptococcus sanguinis; details: S. sanguinis (viridans), N=15
Method: as §1, §2

S. gallolyticus = experiment: MIC by broth microdilution; assay type: cell-based, Streptococcus gallolyticus; details: S. gallolyticus (bovis), N=19
Method: as §1, §2

S. pyogenes = experiment: MIC by broth microdilution; assay type: cell-based, Streptococcus pyogenes; details: S. pyogenes (group A), N=100
Method: as §1, §2

S. agalactiae = experiment: MIC by broth microdilution; assay type: cell-based, Streptococcus agalactiae; details: S. agalactiae (group B), N=97
Method: as §1, §2

S. dysgalactiae = experiment: MIC by broth microdilution; assay type: cell-based, Streptococcus dysgalactiae; details: S. dysgalactiae (group G), N=22
Method: as §1, §2

S. pneumoniae = experiment: MIC by broth microdilution; assay type: cell-based, Streptococcus pneumoniae; details: S. pneumoniae, N=59
Method: as §1, §2

E. faecalis = experiment: MIC by broth microdilution; assay type: cell-based, Enterococcus faecalis; details: E. faecalis (formerly group D), N=18
Method: as §1, §2

MRSA strain MW2 = experiment: Left-sided catheter-induced IE model due to MRSA, CF-301 dose strategies plus DAP (Example 4); assay type: in vivo, rabbits; details: all CF-301 doses given in addition to DAP
Method: Briefly, female New Zealand White rabbits (Harlan Laboratories; 2.3 to 2.5 kg body weight) underwent transcarotid-transaortic valve catheterization, and IE was induced by IV infection of ˜1-2×10^5 cfu of MW2 at 48 hours (h) after catheterization. […] See also FIG. 4.
On day 5, animals were sacrificed, and target tissues (cardiac vegetations, kidney and spleen) were removed and quantitatively cultured. Tissue MRSA counts are given as the mean log10 CFU/g of tissue±SD).
A two-tailed Student's t test was used to analyze the tissue MRSA counts between different groups. P values <0.05 were considered significant. No adjustment was made for all the P values reported in this study.

[1] = test system: MRSA strain MW2 (CA-MRSA; USA400); details: cited from earlier work

B1: CF-301: anti-staphylococcal lysin encoded within a prophage of the Streptococcus suis genome, SEQ ID NO: 2 with or without initial methionine (protein, listed as Streptococcus suis)
chain: MTTVNEALNNVRAQVGSGVSVGNGECYALASWYERMISPDATVGLGAGVGWVSGAIGDTISAKNIGSSYNWQANGWTVSTSGPFKAGQIVTLGATPGNPYGHVVIVEAVDGDRLTILEQNYGGKRYPVRNYYSAASYRQQVVHYITPPGTVAQSAPNLAGSRSYRETGTMTVTVDALNVRRAPNTSGEIVAVYKRGESFDYDTVIIDVNGYVWVSYIGGSGKRNYVATGATKDGKRFGNAWGTFK
In the case of B1, the MIC50 (S. aureus (MRSA)) is reported as 0.5 µg/mL, the MIC90 (S. aureus (MRSA)) is reported as 1 µg/mL and the “MIC Range” value (S. aureus (MRSA)) is reported as 0.5 to 2 µg/mL. The MIC50 (S. aureus (MSSA)) was 0.5 µg/mL, the MIC90 (S. aureus (MSSA)) was 0.5 µg/mL and the “MIC Range” value (S. aureus (MSSA)) was 0.25 to 1 µg/mL. The MIC50 (S. lugdunensis) was 1 µg/mL, the MIC90 (S. lugdunensis) was 1 µg/mL and the “MIC Range” value (S. lugdunensis) was 0.25 to 2 µg/mL. The MIC50 (S. capitis) was 1 µg/mL, the MIC90 (S. capitis) was 2 µg/mL and the “MIC Range” value (S. capitis) was 0.25 to 4 µg/mL. The MIC50 (S. warneri) was 0.5 µg/mL, the MIC90 (S. warneri) was 1 µg/mL and the “MIC Range” value (S. warneri) was 0.06 to 1 µg/mL. For the same molecule, the MIC50 (S. gordonii) was 4 µg/mL, the MIC90 (S. gordonii) was 8 µg/mL and the “MIC Range” value (S. gordonii) was 0.5 to 8 µg/mL. The MIC50 (S. mitis) was 2 µg/mL, the MIC90 (S. mitis) was 8 µg/mL and the “MIC Range” value (S. mitis) was 0.5 to 64 µg/mL. It also gave an MIC50 (S. mutans) of 32 µg/mL, an MIC90 (S. mutans) of 64 µg/mL and an MIC50 (S. oralis) of 4 µg/mL. The MIC90 (S. oralis) was 64 µg/mL, the “MIC Range” value (S. oralis) was 0.5 to 64 µg/mL and the MIC50 (S. salivarius) was 2 µg/mL. For the same molecule, the MIC90 (S. salivarius) was 8 µg/mL, the “MIC Range” value (S. salivarius) was 0.5 to 8 µg/mL and the MIC50 (S. sanguinis) was 4 µg/mL. For the same molecule, the MIC90 (S. sanguinis) was 16 µg/mL, the “MIC Range” value (S. sanguinis) was 2 to 32 µg/mL and the MIC50 (S. gallolyticus) was 64 µg/mL. For the same molecule, the MIC90 (S. gallolyticus) was >512 µg/mL, the MIC50 (S. pyogenes) was 1 µg/mL and the MIC90 (S. pyogenes) was 2 µg/mL. The “MIC Range” value (S. pyogenes) was 0.5 to 4 µg/mL, the MIC50 (S. agalactiae) was 1 µg/mL and the MIC90 (S. agalactiae) was 2 µg/mL. The “MIC Range” value (S. agalactiae) was 0.25 to 4 µg/mL, the MIC50 (S. dysgalactiae) was 1 µg/mL and the MIC90 (S. dysgalactiae) was 2 µg/mL. For the same molecule, the “MIC Range” value (S. dysgalactiae) was 1 to 2 µg/mL, the MIC50 (S. pneumoniae) was 4 µg/mL and the MIC90 (S. pneumoniae) was 32 µg/mL. For the same molecule, the “MIC Range” value (S. pneumoniae) was 1 to 64 µg/mL, the MIC50 (E. faecalis) was 16 µg/mL and the MIC90 (E. faecalis) was 64 µg/mL. For the same molecule, the “MIC Range” value (E. faecalis) was 1 to 256 µg/mL, the “further reduction of MRSA densities in all target tissues vs DAP alone” value (MRSA strain MW2) was “about 3 log10 cfu/g” and the “reduction of MRSA densities in all target tissues vs vehicle control groups” value (MRSA strain MW2) was “about 6 log10 cfu/g”. The MIC [1] was 1.0 µg/mL.
